Measurements reported in patent US20220387586A1 (Hoffmann-La Roche, published 2022).
Where two headings read alike, the source gives them in different places.

T1: biotinylated-Lag3 (UniProt P18627 23-450, limits assumed, biotinylated)
T1 construct: Probably a human LAG3 ECD construct; also called Lag3 (MHCII/ELISA)
T1 sequence (looked up): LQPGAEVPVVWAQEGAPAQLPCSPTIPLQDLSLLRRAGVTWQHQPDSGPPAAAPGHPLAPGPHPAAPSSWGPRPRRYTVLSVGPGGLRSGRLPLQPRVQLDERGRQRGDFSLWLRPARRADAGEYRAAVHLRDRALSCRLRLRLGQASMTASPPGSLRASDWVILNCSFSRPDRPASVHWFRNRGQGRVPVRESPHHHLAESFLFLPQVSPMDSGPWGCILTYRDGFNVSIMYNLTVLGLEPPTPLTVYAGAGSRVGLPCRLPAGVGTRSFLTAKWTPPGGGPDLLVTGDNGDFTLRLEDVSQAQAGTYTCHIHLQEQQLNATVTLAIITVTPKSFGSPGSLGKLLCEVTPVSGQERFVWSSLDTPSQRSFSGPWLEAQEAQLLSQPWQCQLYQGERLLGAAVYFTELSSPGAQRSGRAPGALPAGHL

T2: recombinant Human LAG-3 Fc Chimera Protein (R&D Systems, 2319-L3) (human, UniProt P18627 29-450)
T2 construct: Bought protein; also called huLAG3; not shown: Fc part of the chimera
T2 sequence: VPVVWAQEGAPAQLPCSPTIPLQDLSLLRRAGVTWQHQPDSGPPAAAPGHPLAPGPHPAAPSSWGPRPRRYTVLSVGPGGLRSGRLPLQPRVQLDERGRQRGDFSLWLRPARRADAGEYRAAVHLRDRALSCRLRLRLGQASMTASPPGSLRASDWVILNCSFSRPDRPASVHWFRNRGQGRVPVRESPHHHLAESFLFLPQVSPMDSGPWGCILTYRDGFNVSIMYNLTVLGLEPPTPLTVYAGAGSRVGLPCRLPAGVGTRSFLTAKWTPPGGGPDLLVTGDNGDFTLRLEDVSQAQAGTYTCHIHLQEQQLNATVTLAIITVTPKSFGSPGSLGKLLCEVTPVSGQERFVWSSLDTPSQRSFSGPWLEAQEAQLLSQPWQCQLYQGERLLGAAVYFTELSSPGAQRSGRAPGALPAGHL

T3: LAG3 on cells (recombinant CHO cells expressing Lag3) (human, UniProt P18627 29-525)
T3 construct: The cell ELISA paragraphs say only 'Lag3'; also called CHO-LAG3; Lag3 cells
T3 sequence: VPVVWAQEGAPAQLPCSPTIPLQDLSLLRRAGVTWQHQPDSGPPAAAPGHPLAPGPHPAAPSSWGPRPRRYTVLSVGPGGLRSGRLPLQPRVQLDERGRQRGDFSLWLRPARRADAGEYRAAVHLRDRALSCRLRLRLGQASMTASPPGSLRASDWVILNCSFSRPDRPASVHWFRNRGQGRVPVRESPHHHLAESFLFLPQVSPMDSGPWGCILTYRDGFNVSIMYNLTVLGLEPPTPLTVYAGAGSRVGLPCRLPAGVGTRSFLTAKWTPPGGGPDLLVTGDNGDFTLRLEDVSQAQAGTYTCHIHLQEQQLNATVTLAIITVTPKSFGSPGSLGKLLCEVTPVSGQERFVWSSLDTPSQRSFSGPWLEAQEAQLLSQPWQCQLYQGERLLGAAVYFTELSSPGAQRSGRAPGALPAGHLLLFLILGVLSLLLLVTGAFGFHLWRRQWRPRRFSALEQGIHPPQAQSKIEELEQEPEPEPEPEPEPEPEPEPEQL


Tests used:
[1] = target: T4, PD1 on PD1+LAG3+ human U2OS cells (UniProt Q15116 25-288); experiment: cell-based or functional assay
biotinylated-Lag3 = target: T1, biotinylated-Lag3; experiment: ELISA, inhibition of biotinylated-Lag3 binding to MHC-II on A375 cells (competitor MHC-II)
Description: 25 μl/well of A375 cells (10000 cells/well) were seeded into tissue culture treated 384-well plates (Corning, 3701) and incubated at 37° C. overnight. […] After washing (1×90 μl in PBST) cells were fixed by addition of 30 μl/well glutaraldehyde to a final concentration of 0.05% (Sigma Cat.No: G5882), 10 min at room temperature. After washing (3×90 μl/well with PBST-buffer) 25 μl/well Poly-HRP40-Streptavidin (Fitzgerald, 65R-S104PHRPx) was added in a 1:2000 or 1:8000 dilution and incubated at RT for 1 h. After washing (3×90 μl/well with PBST-buffer) 25 μl/well TMB substrate (Roche, 11835033001) was added and incubated for 2 to 10 min. Measurement took place on a Tecan Safire 2 instrument at 370/492 nm.

[2] = target: T5, full-length human PD1 on cells (human, UniProt Q15116 25-288); experiment: cell ELISA on CHO-K1 cells expressing full-length human PD1 (rel. EC50)
T5 construct: also called CHO-PD1
Description: (to avoid internalization). After washing carefully (1×90 μl/well PBST) cells were fixed by adding 30 μl/well 0.05% Glutaraldehyde (Sigma, Cat.No: G5882, 25%) diluted in 1×PBS-buffer and incubated for 10 min at RT. After washing (3×90 μl/well PBST) 25 μl/well secondary antibody was added for detection: goat-anti-human H+L-POD (JIR, JIR109-036-088)/Sheep-anti-mouse-POD (GE NA9310) followed by 1 h incubation at RT on shaker. After washing (3×90 μl/well PBST) 25 μl/well TMB substrate solution (Roche 11835033001) was added and incubated until OD 1.0-2.0. Plates were measured at 370/492 nm.

[3] = target: T2, recombinant Human LAG-3 Fc Chimera …; experiment: ELISA on coated Human LAG-3 Fc Chimera (rel. EC50)
Description: After washing (3×90 μl/well with PBST-buffer) each well was incubated with 90 μl blocking buffer (PBS+2% BSA+0.05% Tween 20) for 1 h at room temperature. […] After washing (3×90 μl/well with PBST-buffer) 25 μl/well goat anti-Human Ig κ chain antibody-HRP conjugate (Milipore, AP502P) was added in a 1:2000 dilution and incubated at RT for 1 h. After washing (3×90 μl/well with PBST-buffer) 25 μl/well TMB substrate (Roche, 11835033001) was added and incubated for 2-10 min. Measurement took place on a Tecan Safire 2 instrument at 370/492 nm.

[4] = target: T4, PD1 on PD1+LAG3+ human U2OS cells; experiment: cell-based or functional assay; remark: listed apart in the source
[5] = target: T3, LAG3 on cells (recombinant CHO cells …); experiment: cell ELISA on recombinant CHO cells expressing Lag3 (rel. EC50)
Description: After washing (1×90 μl in PBST) cells were fixed by addition of 30 μl/well glutaraldehyde to a final concentration of 0.05% (Sigma Cat.No: G5882), 10 min at room temperature. After washing (3×90 μl/well with PBST-buffer) 25 μl/well goat anti-Human Ig κ chain antibody-HRP conjugate (Milipore, AP502P) was added in a 1:1000 dilution and incubated at RT for 1 h. After washing (3×90 μl/well with PBST-buffer) 25 μl/well TMB substrate (Roche, 11835033001) was added and incubated for 6-10 min. Measurement took place on a Tecan Safire 2 instrument at 370/492 nm.

[6] = target: T6, biotinylated PD1-ECD-AviHis (human, UniProt Q15116 25-170, biotinylated); experiment: ELISA on coated biotinylated PD1-ECD-AviHis (rel. EC50)
T6 construct: also called huPD1; hu PD1; not shown: Avi-His tag
Description: After washing (3×90 μl/well with PBST-buffer) 25 μl/well goat-anti-human H+L-POD (JIR, JIR109-036-098) was added in 1:5000 dilution and incubated at RT for 1 h on a shaker. After washing (3×90 μl/well with PBST-buffer) 25 μl/well of TMB substrate (Roche, 11835033001) was added and incubated until OD 2-3. Measurement took place at 370/492 nm.

T6 sequence (Q15116 25-170): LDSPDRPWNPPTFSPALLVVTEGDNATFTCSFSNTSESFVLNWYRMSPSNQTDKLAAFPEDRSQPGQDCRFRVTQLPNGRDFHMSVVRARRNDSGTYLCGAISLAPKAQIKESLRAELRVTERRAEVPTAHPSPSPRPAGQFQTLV
T4 sequence (Q15116 25-288): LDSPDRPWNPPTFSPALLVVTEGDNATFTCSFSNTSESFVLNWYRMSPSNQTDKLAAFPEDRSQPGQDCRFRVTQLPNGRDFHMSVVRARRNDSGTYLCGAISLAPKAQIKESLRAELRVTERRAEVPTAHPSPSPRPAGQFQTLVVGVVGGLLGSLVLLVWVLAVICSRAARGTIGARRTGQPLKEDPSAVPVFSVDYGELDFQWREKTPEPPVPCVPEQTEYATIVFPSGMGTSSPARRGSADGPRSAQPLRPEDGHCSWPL
T5 sequence (Q15116 25-288 limits assumed): as the sequence (Q15116 25-288) above

| EC50 [pM], dimerization binding assay (chemoluminescence) [1] | IC50 (biotinylated-Lag3) | EC50 [2] | EC50 [3] | EC50 [pM], dimerization binding assay (chemoluminescence) [4] | EC50 [5] | EC50 [6] | Binder |
| --- | --- | --- | --- | --- | --- | --- | --- |
| 114 pM | 0.47 nM | 0.34 nM | 0.06 nM | 28 pM | 0.2 nM | 0.06 nM | PD1/LAG3 8310 (bispecific antibody, human IgG1, kappa, L234A L235A, 2+1 format: two LAG3 Fabs, one PD1 crossFab fused to the C-terminus of the Fc knob heavy chain) heavy 1: not shown heavy 2: EVQLLESGGGLVQPGGSLRLSCAASGFIFDDYTMNWVRQAPGKGLEWVAVISWDGGGTYYTDSVKGRFTISRDDFKNTLYLQMNSLRAEDTAVYYCAKGLTDTTLYGSDYWGQGTLVTVSSASTKGPSVFPLAPSSKSTSGGTAALGCLVEDYFPEPVTVSWNSGALTSGVHTFPAVLQSSGLYSLSSVVTVPSSSLGTQTYICNVNHKPSNTKVDEKVEPKSCDKTHTCPPCPAPEAAGGPSVFLFPPKPKDTLMISRTPEVTCVVVDVSHEDPEVKFNWYVDGVEVHNAKTKPREEQYNSTYRVVSVLTVLHQDWLNGKEYKCKVSNKALGAPIEKTISKAKGQPREPQVCTLPPSRDELTKNQVSLSCAVKGFYPSDIAVEWESNGQPENNYKTTPPVLDSDGSFFLVSKLTVDKSRWQQGNVFSCSVMHEALHNHYTQKSLSLSPGK light 1: DIVMTQSPDSLAVSLGERATINCKASESVDTSDNSFIHWYQQKPGQSPKLLIYRSSTLESGVPDRFSGSGSGTDFTLTISSLQAEDVAVYYCQQNYDVPWTFGQGTKVEIKSSASTKGPSVFPLAPSSKSTSGGTAALGCLVKDYFPEPVTVSWNSGALTSGVHTFPAVLQSSGLYSLSSVVTVPSSSLGTQTYICNVNHKPSNTKVDKKVEPKSC light 2: not shown |
| 83 pM | 0.45 nM | 0.46 nM | 0.04 nM | – | 0.2 nM | 0.05 nM | PD1/LAG3 8970 (bispecific antibody, human IgG1, kappa, L234A L235A, 2+2 format) heavy: not shown light 1: DIVMTQSPDSLAVSLGERATINCKASESVDTSDNSFIHWYQQKPGQSPKLLIYRSSTLESGVPDRFSGSGSGTDFTLTISSLQAEDVAVYYCQQNYDVPWTFGQGTKVEIKSSASTKGPSVFPLAPSSKSTSGGTAALGCLVKDYFPEPVTVSWNSGALTSGVHTFPAVLQSSGLYSLSSVVTVPSSSLGTQTYICNVNHKPSNTKVDKKVEPKSC light 2: not shown |
| 124 pM | 0.39 nM | 0.32 nM | 0.06 nM | 119 pM | 0.17 nM | 0.05 nM | PD1/LAG3 8311 (bispecific antibody, human IgG1, kappa, L234A L235A, 2+1 format: two LAG3 Fabs, one PD1 crossFab fused to the C-terminus of the Fc knob heavy chain) heavy 1: not shown heavy 2: EVQLVESGGGLVQPGGSLRLACAASGFTFSDYAMSWVRQAPGKGLEWVSGIDNSGYYTYYTDSVKGRFTISRDDVKNTLYLQMNSLRAEDTAVYLCTKTHSGLIVNDAFDIWGQGTMVTVSSASTKGPSVFPLAPSSKSTSGGTAALGCLVEDYFPEPVTVSWNSGALTSGVHTFPAVLQSSGLYSLSSVVTVPSSSLGTQTYICNVNHKPSNTKVDEKVEPKSCDKTHTCPPCPAPEAAGGPSVFLFPPKPKDTLMISRTPEVTCVVVDVSHEDPEVKFNWYVDGVEVHNAKTKPREEQYNSTYRVVSVLTVLHQDWLNGKEYKCKVSNKALGAPIEKTISKAKGQPREPQVCTLPPSRDELTKNQVSLSCAVKGFYPSDIAVEWESNGQPENNYKTTPPVLDSDGSFFLVSKLTVDKSRWQQGNVFSCSVMHEALHNHYTQKSLSLSPGK light 1: DIVMTQSPDSLAVSLGERATINCKASESVDTSDNSFIHWYQQKPGQSPKLLIYRSSTLESGVPDRFSGSGSGTDFTLTISSLQAEDVAVYYCQQNYDVPWTFGQGTKVEIKSSASTKGPSVFPLAPSSKSTSGGTAALGCLVKDYFPEPVTVSWNSGALTSGVHTFPAVLQSSGLYSLSSVVTVPSSSLGTQTYICNVNHKPSNTKVDKKVEPKSC light 2: not shown |
| 91 pM | 0.44 nM | 0.54 nM | 0.05 nM | – | 0.17 nM | 0.05 nM | PD1/LAG3 8984 (bispecific antibody, human IgG1, kappa, L234A L235A, 2+2 format) heavy: not shown light 1: DIVMTQSPDSLAVSLGERATINCKASESVDTSDNSFIHWYQQKPGQSPKLLIYRSSTLESGVPDRFSGSGSGTDFTLTISSLQAEDVAVYYCQQNYDVPWTFGQGTKVEIKSSASTKGPSVFPLAPSSKSTSGGTAALGCLVKDYFPEPVTVSWNSGALTSGVHTFPAVLQSSGLYSLSSVVTVPSSSLGTQTYICNVNHKPSNTKVDKKVEPKSC light 2: not shown |
